Experimental data from the supplement of paper PMC11246515.
± gives the standard deviation of the averaged measurements.

Assay: total protein half-life in vivo (active degradation + dilution); higher = more stable protein
[1] = E. coli NCM3722 delta-clpP delta-lon delta-hslV, growth: N-lim chemostat, doubling time 6 h
[2] = E. coli NCM3722 delta-hslV, growth: N-lim chemostat, doubling time 6 h
[3] = wild type E. coli NCM3722, growth: N-lim chemostat, doubling time 6 h
[4] = E. coli NCM3722 delta-clpP, growth: N-lim chemostat, doubling time 6 h
[5] = E. coli NCM3722 delta-lon, growth: N-lim chemostat, doubling time 6 h
[6] = E. coli NCM3722 delta-smpB, growth: N-lim chemostat, doubling time 6 h
[7] = wild type E. coli NCM3722, growth: C-lim chemostat, doubling time 3 h
[8] = wild type E. coli NCM3722, growth: C-lim chemostat, doubling time 6 h
[9] = wild type E. coli NCM3722, growth: C-lim chemostat, doubling time 12 h
[10] = wild type E. coli NCM3722, growth: N-lim chemostat, doubling time 12 h
[11] = wild type E. coli NCM3722, growth: P-lim chemostat, doubling time 6 h
[12] = wild type E. coli NCM3722, growth: P-lim chemostat, doubling time 12 h

## MNVNSSSNRGEAILAALKTQFPGAVLDEERQTPEQVTITVKINLLPDVVQYLYYQHDGWLPVLFGNDERTLNGHYAVYYALSMEGAEKCWIVVKALVDADSREFPSVTPRVPAAVWGEREIRDMYGLIPVGLPDQRRLVLPDDWPEDMHPLRKDAMDYRLRPEPTTDSETYPFINEGNSDARVIPVGPLHITSDEPGHFRLFVDGEQIVDADYRLFYVHRGMEKLAETRMGYNEVTFLSDRVCGICGFAHSVAYTNSVENALGIEVPQRAHTIRSILLEVERLHSHLLNLGLSCHFVGFDTGFMQFFRVREKSMTMAELLIGSRKTYGLNLIGGVRRDILKEQRLQTLKLVREMRADVSELVEMLLATPNMEQRTQGIGILDRQIARDLRFDHPYADYGNIPKTLFTFTGGDVFSRVMVRVKETFDSLAMLEFALDNMPDTPLLTEGFSYKPHAFALGFVEAPRGEDVHWSMLGDNQKLFRWRCRAATYANWPVLRYMLRGNTVSDAPLIIGSLDPCYSCTDRVTLVDVRKRQSKTVPYKEIERYGIDRNRSPLK
[1]
  total protein half-life in vivo: 7.09 h
[2]
  total protein half-life in vivo: 5.63 h
[3]
  total protein half-life in vivo: 5.27 h

## MKLYNLKDHNEQVSFAQAVTQGLGKNQGLFFPHDLPEFSLTEIDEMLKLDFVTRSAKILSAFIGDEIPQEILEERVRAAFAFPAPVANVESDVGCLELFHGPTLAFKDFGGRFMAQMLTHIAGDKPVTILTATSGDTGAAVAHAFYGLPNVKVVILYPRGKISPLQEKLFCTLGGNIETVAIDGDFDACQALVKQAFDDEELKVALGLNSANSINISRLLAQICYYFEAVAQLPQETRNQLVVSVPSGNFGDLTAGLLAKSLGLPVKRFIAATNVNDTVPRFLHDGQWSPKATQATLSNAMDVSQPNNWPRVEELFRRKIWQLKELGYAAVDDETTQQTMRELKELGYTSEPHAAVAYRALRDQLNPGEYGLFLGTAHPAKFKESVEAILGETLDLPKELAERADLPLLSHNLPADFAALRKLMMNHQ
[1]
  total protein half-life in vivo: 5.07 ± 0.61 h
[4]
  total protein half-life in vivo: 4.78 ± 0.058 h
[2]
  total protein half-life in vivo: 5.09 ± 0.18 h
[5]
  total protein half-life in vivo: 5.28 ± 0.25 h
[6]
  total protein half-life in vivo: 4.57 ± 0.11 h
[7]
  total protein half-life in vivo: 3.25 ± 0.27 h
[8]
  total protein half-life in vivo: 6.01 ± 0.15 h
[9]
  total protein half-life in vivo: 11.9 ± 0.91 h
[3]
  total protein half-life in vivo: 4.989 ± 0.048 h
[10]
  total protein half-life in vivo: 8.57 ± 0.57 h
[11]
  total protein half-life in vivo: 5.76 ± 0.32 h
[12]
  total protein half-life in vivo: 11.9 ± 0.51 h

## MKLVTVIIKPFKLEDVREALSSIGIQGLTVTEVKGFGRQKGHAELYRGAEYSVNFLPKVKIDVAIADDQLDEVIDIVSKAAYTGKIGDGKIFVAELQRVIRIRTGEADEAAL [P0AC55]
[4]
  total protein half-life in vivo: 5.2 ± 0.45 h
[2]
  total protein half-life in vivo: 5.45 ± 0.14 h
[5]
  total protein half-life in vivo: 5.044 ± 0.034 h
[6]
  total protein half-life in vivo: 4.83 ± 0.068 h
[7]
  total protein half-life in vivo: > 4 h
[8]
  total protein half-life in vivo: 7.02 h
[3]
  total protein half-life in vivo: 5.43 ± 0.42 h
[10]
  total protein half-life in vivo: 8.82 ± 0.72 h
[12]
  total protein half-life in vivo: 13.6 ± 2.6 h

## MERNVTLDFVRGVAILGILLLNISAFGLPKAAYLNPAWYGAITPRDAWTWAFLDLIGQVKFLTLFALLFGAGLQMLLPRGRRWIQSRLTLLVLLGFIHGLLFWDGDILLAYGLVGLICWRLVRDAPSVKSLFNTGVMLYLVGLGVLLLLGLISDSQTSRAWTPDASAILYEKYWKLHGGVEAISNRADGVGNSLLALGAQYGWQLAGMMLIGAALMRSGWLKGQFSLRHYRRTGFVLVAIGVTINLPAIALQWQLDWAYRWCAFLLQMPRELSAPFQAIGYASLFYGFWPQLSRFKLVLAIACVGRMALTNYLLQTLICTTLFYHLGLFMHFDRLELLAFVIPVWLANILFSVIWLRYFRQGPVEWLWRQLTLRAAGPAISKTSR
[4]
  total protein half-life in vivo: 5.73 ± 0.069 h
[2]
  total protein half-life in vivo: 5.75 ± 1.1 h
[5]
  total protein half-life in vivo: 6.13 ± 0.32 h
[6]
  total protein half-life in vivo: 5.67 ± 0.66 h
[8]
  total protein half-life in vivo: 6.471 ± 0.017 h
[9]
  total protein half-life in vivo: 10.3 ± 1.2 h
[3]
  total protein half-life in vivo: 6.72 ± 0.74 h
[10]
  total protein half-life in vivo: 7.45 ± 4 h
[11]
  total protein half-life in vivo: 5.19 ± 0.44 h
[12]
  total protein half-life in vivo: 11.6 ± 0.22 h

## MKQTQRHNGIIELVKQQGYVSTEELVEHFSVSPQTIRRDLNELAEQNLILRHHGGAALPSSSVNTPWHDRKATQTEEKERIARKVAEQIPNGSTLFIDIGTTPEAVAHALLNHSNLRIVTNNLNVANTLMVKEDFRIILAGGELRSRDGGIIGEATLDFISQFRLDFGILGISGIDSDGSLLEFDYHEVRTKRAIIENSRHVMLVVDHSKFGRNAMVNMGSISMVDAVYTDAPPPVSVMQVLTDHHIQLELC [P0ACL0]
[1]
  total protein half-life in vivo: 6.303 ± 0.03 h
[4]
  total protein half-life in vivo: 5.91 ± 0.36 h
[2]
  total protein half-life in vivo: 5.156 ± 0.034 h
[5]
  total protein half-life in vivo: 5.78 ± 0.11 h
[6]
  total protein half-life in vivo: 5.52 ± 0.89 h
[7]
  total protein half-life in vivo: 2.84 ± 0.11 h
[8]
  total protein half-life in vivo: 5.9 ± 0.41 h
[9]
  total protein half-life in vivo: 10.73 ± 0.031 h
[3]
  total protein half-life in vivo: 5.84 ± 0.25 h
[10]
  total protein half-life in vivo: 10.323 ± 0.00092 h
[11]
  total protein half-life in vivo: 5.28 ± 0.33 h
[12]
  total protein half-life in vivo: 11.3 ± 0.63 h

## MKIHTTEALMKAEISRRSLMKTSALGSLALASSAFTLPFSQMVRAAEAPVEEKAVWSSCTVNCGSRCLLRLHVKDDTVYWVESDTTGDDVYGNHQVRACLRGRSIRRRMNHPDRLKYPMKRVGKRGEGKFERISWDEALDTISDNLRRILKDYGNEAVHVLYGTGVDGGNITNSNVPYRLMNSCGGFLSRYGSYSTAQISAAMSYMFGANDGNSPDDIANTKLVVMFGNNPAETRMSGGGVTYYVEQARERSNARMIVIDPRYNDTAAGREDEWLPIRPGTDGALACAIAWVLITENMVDQPFLDKYCVGYDEKTLPANAPRNAHYKAYILGEGPDGIAKTPEWAAKITSIPAEKIIQLAREIGSAKPAYICQGWGPQRHSNGEQTSRAIAMLSVLTGNVGINGGNSGVREGSWDLGVEWFPMLENPVKTQISVFTWTDAIDHGTEMTATRDGVRGKEKLDVPIKFLWCYASNTLINQHGDINHTHEVLQDDSKCEMIVGIDHFMTASAKYCDILLPDLMPTEQEDLISHESAGNMGYVILAQPATSAKFERKPIYWMLSEVAKRLGPDVYQTFTEGRSQHEWIKYLHAKTKERNPEMPDYEEMKTTGIFKKKCPEEHYVAFRAFREDPQANPLKTPSGKIEIYSERLAKIADTWELKKDEIIHPLPAYTPGFDGWDDPLRKTYPLQLTGFHYKARTHSSYGNIDVLQQACPQEVWINPIDAQARGIRHGDTVRVFNNNGEMLIAAKVTPRILPGVTAIGQGAWLKADMFGDRVDHGGSINILTSHRPSPLAKGNPSHSNLVQIEKV
[1]
  total protein half-life in vivo: 6.47 ± 2.1 h
[6]
  total protein half-life in vivo: 4.94 h
[8]
  total protein half-life in vivo: 4.9 h
[9]
  total protein half-life in vivo: 13.9 h
[10]
  total protein half-life in vivo: 3.57 h
[12]
  total protein half-life in vivo: 3.5 h

## MDFSGKNVWVTGAGKGIGYATALAFVEAGAKVTGFDQAFTQEQYPFATEVMDVADAAQVAQVCQRLLAETERLDALVNAAGILRMGATDQLSKEDWQQTFAVNVGGAFNLFQQTMNQFRRQRGGAIVTVASDAAHTPRIGMSAYGASKAALKSLALSVGLELAGSGVRCNVVSPGSTDTDMQRTLWVSDDAEEQRIRGFGEQFKLGIPLGKIARPQEIANTILFLASDLASHITLQDIVVDGGSTLGA
[7]
  total protein half-life in vivo: 3.26 ± 0.27 h

## MKFPGKRKSKHYFPVNARDPLLQQFQPENETSAAWVVGIDQTLVDIEAKVDDEFIERYGLSAGHSLVIEDDVAEALYQELKQKNLITHQFAGGTIGNTMHNYSVLADDRSVLLGVMCSNIEIGSYAYRYLCNTSSRTDLNYLQGVDGPIGRCFTLIGESGERTFAISPGHMNQLRAESIPEDVIAGASALVLTSYLVRCKPGEPMPEATMKAIEYAKKYNVPVVLTLGTKFVIAENPQWWQQFLKDHVSILAMNEDEAEALTGESDPLLASDKALDWVDLVLCTAGPIGLYMAGFTEDEAKRKTQHPLLPGAIAEFNQYEFSRAMRHKDCQNPLRVYSHIAPYMGGPEKIMNTNGAGDGALAALLHDITANSYHRSNVPNSSKHKFTWLTYSSLAQVCKYANRVSYQVLNQHSPRLTRGLPEREDSLEESYWDR [P0AEW6]
[1]
  total protein half-life in vivo: 4.78 ± 0.21 h
[4]
  total protein half-life in vivo: 5.5 ± 1.9 h
[2]
  total protein half-life in vivo: 4.38 ± 0.28 h
[5]
  total protein half-life in vivo: 6.01 ± 2.3 h
[6]
  total protein half-life in vivo: 4.03 ± 0.31 h
[7]
  total protein half-life in vivo: 2.86 ± 0.38 h
[8]
  total protein half-life in vivo: 5.87 ± 1.5 h
[9]
  total protein half-life in vivo: 8.23 h
[3]
  total protein half-life in vivo: 4.14 ± 0.24 h
[10]
  total protein half-life in vivo: 8.14 ± 1.9 h
[11]
  total protein half-life in vivo: 5.07 ± 0.35 h
[12]
  total protein half-life in vivo: 9.56 ± 0.61 h
